The supplement of paper PMC11246515
± gives the standard deviation of the averaged measurements.

Assay: total protein half-life in vivo (active degradation + dilution); higher = more stable protein
[1] = E. coli NCM3722 delta-clpP delta-lon delta-hslV, growth: N-lim chemostat, doubling time 6 h
[2] = E. coli NCM3722 delta-clpP, growth: N-lim chemostat, doubling time 6 h
[3] = E. coli NCM3722 delta-hslV, growth: N-lim chemostat, doubling time 6 h
[4] = E. coli NCM3722 delta-lon, growth: N-lim chemostat, doubling time 6 h
[5] = E. coli NCM3722 delta-smpB, growth: N-lim chemostat, doubling time 6 h
[6] = wild type E. coli NCM3722, growth: C-lim chemostat, doubling time 3 h
[7] = wild type E. coli NCM3722, growth: C-lim chemostat, doubling time 6 h
[8] = wild type E. coli NCM3722, growth: C-lim chemostat, doubling time 12 h
[9] = wild type E. coli NCM3722, growth: N-lim chemostat, doubling time 6 h
[10] = wild type E. coli NCM3722, growth: N-lim chemostat, doubling time 12 h
[11] = wild type E. coli NCM3722, growth: P-lim chemostat, doubling time 6 h
[12] = wild type E. coli NCM3722, growth: P-lim chemostat, doubling time 12 h

| Sequence | total protein half-life in vivo [1] [h] | total protein half-life in vivo [2] [h] | total protein half-life in vivo [3] [h] | total protein half-life in vivo [4] [h] | total protein half-life in vivo [5] [h] | total protein half-life in vivo [6] [h] | total protein half-life in vivo [7] [h] | total protein half-life in vivo [8] [h] | total protein half-life in vivo [9] [h] | total protein half-life in vivo [10] [h] | total protein half-life in vivo [11] [h] | total protein half-life in vivo [12] [h] |
| --- | --- | --- | --- | --- | --- | --- | --- | --- | --- | --- | --- | --- |
| MADTKAKLTLNGDTAVELDVLKGTLGQDVIDIRTLGSKGVFTFDPGFTSTASCESKITFIDGDEGILLHRGFPIDQLATDSNYLEVCYILLNGEKPTQEQYDEFKTTVTRHTMIHEQITRLFHAFRRDSHPMAVMCGITGALAAFYHDSLDVNNPRHREIAAFRLLSKMPTMAAMCYKYSIGQPFVYPRNDLSYAGNFLNMMFSTPCEPYEVNPILERAMDRILILHADHEQNASTSTVRTAGSSGANPFACIAAGIASLWGPAHGGANEAALKMLEEISSVKHIPEFVRRAKDKNDSFRLMGFGHRVYKNYDPRATVMRETCHEVLKELGTKDDLLEVAMELENIALNDPYFIEKKLYPNVDFYSGIILKAMGIPSSMFTVIFAMARTVGWIAHWSEMHSDGMKIARPRQLYTGYEKRDFKSDIKR [P0ABH7] | 4.1 ± 0.75 | 3.04 ± 0.12 | 2.942 ± 0.0099 | 3.4 ± 0.35 | 3.08 ± 0.34 | 3.18 ± 0.15 | 5.24 ± 0.23 | 9.82 ± 1.7 | 2.94 ± 0.063 | 4.55 ± 0.57 | 5.57 ± 0.27 | 10.5 ± 0.35 |
| MFKKGLLALALVFSLPVFAAEHWIDVRVPEQYQQEHVQGAINIPLKEVKERIATAVPDKNDTVKVYCNAGRQSGQAKEILSEMGYTHVENAGGLKDIAMPKVKG |  |  |  | 2.7 ± 0.26 | 2.61 | 1.97 ± 0.051 | 2.89 | 3.42 ± 0.39 |  |  |  | 3.19 |
| MSNPILSWRRVRALCVKETRQIVRDPSSWLIAVVIPLLLLFIFGYGINLDSSKLRVGILLEQRSEAALDFTHTMTGSPYIDATISDNRQELIAKMQAGKIRGLVVIPVDFAEQMERANATAPIQVITDGSEPNTANFVQGYVEGIWQIWQMQRAEDNGQTFEPLIDVQTRYWFNPAAISQHFIIPGAVTIIMTVIGAILTSLVVAREWERGTMEALLSTEITRTELLLCKLIPYYFLGMLAMLLCMLVSVFILGVPYRGSLLILFFISSLFLLSTLGMGLLISTITRNQFNAAQVALNAAFLPSIMLSGFIFQIDSMPAVIRAVTYIIPARYFVSTLQSLFLAGNIPVVLVVNVLFLIASAVMFIGLTWLKTKRRLD [P0AFQ2] | 6.67 ± 0.81 | 5.62 | 6.1 | 5.56 | 6.04 ± 0.15 |  | 5.36 | 12.8 | 6.36 ± 0.5 | 12.5 ± 3.1 |  | 12.6 ± 0.43 |
| MVKVYAPASSANMSVGFDVLGAAVTPVDGALLGDVVTVEAAETFSLNNLGRFADKLPSEPRENIVYQCWERFCQELGKQIPVAMTLEKNMPIGSGLGSSACSVVAALMAMNEHCGKPLNDTRLLALMGELEGRISGSIHYDNVAPCFLGGMQLMIEENDIISQQVPGFDEWLWVLAYPGIKVSTAEARAILPAQYRRQDCIAHGRHLAGFIHACYSRQPELAAKLMKDVIAEPYRERLLPGFRQARQAVAEIGAVASGISGSGPTLFALCDKPETAQRVADWLGKNYLQNQEGFVHICRLDTAGARVLEN | 5.55 ± 0.88 | 3.7 ± 0.34 | 4.29 ± 0.69 | 5.16 ± 0.65 | 4.35 ± 0.11 | 2.73 ± 0.61 | 5.63 ± 0.58 | 8.58 ± 0.091 | 4.31 ± 0.33 | 6.8 ± 0.37 | 6.04 ± 0.13 | 12.6 ± 0.79 |
| MESLNQFVNSLAPKLSHWRRDFHHYAESGWVEFRTATLVAEELHQLGYSLALGREVVNESSRMGLPDEFTLQREFERARQQGALAQWIAAFEGGFTGIVATLDTGRPGPVMAFRVDMDALDLSEEQDVSHRPYRDGFASCNAGMMHACGHDGHTAIGLGLAHTLKQFESGLHGVIKLIFQPAEEGTRGARAMVDAGVVDDVDYFTAVHIGTGVPAGTVVCGSDNFMATTKFDAHFTGTAAHAGAKPEDGHNALLAAAQATLALHAIAPHSEGASRVNVGVMQAGSGRNVVPASALLKVETRGASDVINQYVFDRAQQAIQGAATMYGVGVETRLMGAATASSPSPQWVAWLQSQAAQVAGVNQAIERVEAPAGSEDATLMMARVQQHQGQASYVVFGTQLAAGHHNEKFDFDEQVLAIAVETLARTALNFPWTRGI | 6.21 ± 1.1 | 2.65 ± 0.05 | 3.12 ± 0.28 | 3.18 ± 0.22 | 2.86 ± 0.093 | 1.71 ± 0.65 | 5.22 | 5.67 ± 0.081 | 2.9 ± 0.053 | 4.45 ± 0.16 | 1.87 | 6.79 |
| MSESAFKDCFLTDVSADTRLFHFLARDYIVQEGQQPSWLFYLTRGRARLYATLANGRVSLIDFFAAPCFIGEIELIDKDHEPRAVQAIEECWCLALPMKHYRPLLLNDTLFLRKLCVTLSHKNYRNIVSLTQNQSFPLVNRLAAFILLSQEGDLYHEKHTQAAEYLGVSYRHLLYVLAQFIHDGLLIKSKKGYLIKNRKQLSGLALEMDPENKFSGMMQ [P0A9E9] |  |  |  |  |  | 1.56 |  | 2.53 |  |  |  |  |
| MKIFSVRQTVLPALLVLSPVVFAADEQTMIVSAAPQVVSELDTPAAVSVVDGEEMRLATPRINLSESLTGVPGLQVQNRQNYAQDLQLSIRGFGSRSTYGIRGIRLYVDGIPATMPDGQGQTSNIDLSSVQNVEVLRGPFSALYGNASGGVMNVTTQTGQQPPTIEASSYYGSFGSWRYGLKATGATGDGTQPGDVDYTVSTTRFTTHGYRDHSGAQKNLANAKLGVRIDEASKLSLIFNSVDIKADDPGGLTKAEWKANPQQAPRAEQYDTRKTIKQTQAGLRYERSLSSRDDMSVMMYAGERETTQYQSIPMAPQLNPSHAGGVITLQRHYQGIDSRWTHRGELGVPVTFTTGLNYENMSENRKGYNNFRLNSGMPEYGQKGELRRDERNLMWNIDPYLQTQWQLSEKLSLDAGVRYSSVWFDSNDHYVTPGNGDDSGDASYHKWLPAGSLKYAMTDAWNIYLAAGRGFETPTINELSYRADGQSGMNLGLKPSTNDTIEIGSKTRIGDGLLSLALFQTDTDDEIVVDSSSGGRTTYKNAGKTRRQGAELAWDQRFAGDFRVNASWTWLDATYRSNVCNEQDCNGNRMPGIARNMGFASIGYVPEDGWYAGTEARYMGDIMADDENTAKAPSYTLVGLFTGYKYNYHNLTVDLFGRVDNLFDKEYVGSVIVNESNGRYYEPSPGRNYGVGMNIAWRFE | 5.463 ± 0.043 | 6.48 ± 0.072 |  |  | 5.98 ± 0.44 |  | 6.21 ± 0.33 | 13.6 ± 1 | 6.02 ± 0.5 | 12.9 ± 0.56 | 5.34 ± 0.089 | > 16 |
| MVRKGCNSLVRAEKILTHIAWVGMASYMELLNKFQYPKSSLLNLLNVMVDCGFLIKNKNGYYSLGIKNYELGCQALHRQNIFEVTKRPMQELSLKSGLVCHLGAMESISAIYLDKIESPDSVPTSKSWIGKKLELHITALGKALLAWKTREELDYFLEALTLTPHTRNTFTDKKLFLEELQKTRLRGWAIDNEESTYGAVCLSMPVFNMYNRVNYAISLSGDPVVYSGNKIDSYLELLRKCAEQISYGLGYRNENEHLRKGN |  |  |  |  |  | 1.15 | 1.6 ± 0.092 | 2.7 ± 0.086 |  | 3.16 |  |  |
